B1: Solute carrier family 2, facilitated glucose transporter member 8 (Mus musculus), Q9JIF3 (parent)
chain: MSPEDPQETQPLLRPPEARTPRGRRVFLASFAAALGPLSFGFALGYSSPAIPSLRRTAPPALRLGDNAASWFGAVVTLGAAAGGILGGWLLDRAGRKLSLLLCTVPFVTGFAVITAARDVWMLLGGRLLTGLACGVASLVAPVYISEIAYPAVRGLLGSCVQLMVVTGILLAYVAGWVLEWRWLAVLGCVPPTLMLLLMCYMPETPRFLLTQHQYQEAMAALRFLWGSEEGWEEPPVGAEHQGFQLALLRRPGIYKPLIIGISLMVFQQLSGVNAIMFYANSIFEEAKFKDSSLASVTVGIIQVLFTAVAALIMDRAGRRLLLALSGVIMVFSMSAFGTYFKLTQSLPSNSSHVGLVPIAAEPVDVQVGLAWLAVGSMCLFIAGFAVGWGPIPWLLMSEIFPLHVKGVATGICVLTNWFMAFLVTKEFSSVMEMLRPYGAFWLTAAFCALSVLFTLTVVPETKGRTLEQVTAHFEGR
B2: Solute carrier family 2, facilitated glucose transporter member 8 (Mus musculus), Q9JIF3 (parent)
chain: B1 chain
partner: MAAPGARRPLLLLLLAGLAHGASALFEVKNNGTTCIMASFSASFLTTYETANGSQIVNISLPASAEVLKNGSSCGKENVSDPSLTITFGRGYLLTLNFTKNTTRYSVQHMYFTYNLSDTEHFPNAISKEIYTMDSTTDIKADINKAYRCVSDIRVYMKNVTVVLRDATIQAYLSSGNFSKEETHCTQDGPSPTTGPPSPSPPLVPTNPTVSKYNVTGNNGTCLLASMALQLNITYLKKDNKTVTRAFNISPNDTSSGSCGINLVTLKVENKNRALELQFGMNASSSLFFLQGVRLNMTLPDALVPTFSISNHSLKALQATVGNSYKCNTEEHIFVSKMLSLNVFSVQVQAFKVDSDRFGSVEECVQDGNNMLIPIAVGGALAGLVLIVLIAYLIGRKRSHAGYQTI

Variants of: B1
Settings: with ap2b1_mouse Ap2b1, Q9DBG3
ap2b1_mouse Ap2b1, Q9DBG3, sequence (Q9DBG3 whole entry): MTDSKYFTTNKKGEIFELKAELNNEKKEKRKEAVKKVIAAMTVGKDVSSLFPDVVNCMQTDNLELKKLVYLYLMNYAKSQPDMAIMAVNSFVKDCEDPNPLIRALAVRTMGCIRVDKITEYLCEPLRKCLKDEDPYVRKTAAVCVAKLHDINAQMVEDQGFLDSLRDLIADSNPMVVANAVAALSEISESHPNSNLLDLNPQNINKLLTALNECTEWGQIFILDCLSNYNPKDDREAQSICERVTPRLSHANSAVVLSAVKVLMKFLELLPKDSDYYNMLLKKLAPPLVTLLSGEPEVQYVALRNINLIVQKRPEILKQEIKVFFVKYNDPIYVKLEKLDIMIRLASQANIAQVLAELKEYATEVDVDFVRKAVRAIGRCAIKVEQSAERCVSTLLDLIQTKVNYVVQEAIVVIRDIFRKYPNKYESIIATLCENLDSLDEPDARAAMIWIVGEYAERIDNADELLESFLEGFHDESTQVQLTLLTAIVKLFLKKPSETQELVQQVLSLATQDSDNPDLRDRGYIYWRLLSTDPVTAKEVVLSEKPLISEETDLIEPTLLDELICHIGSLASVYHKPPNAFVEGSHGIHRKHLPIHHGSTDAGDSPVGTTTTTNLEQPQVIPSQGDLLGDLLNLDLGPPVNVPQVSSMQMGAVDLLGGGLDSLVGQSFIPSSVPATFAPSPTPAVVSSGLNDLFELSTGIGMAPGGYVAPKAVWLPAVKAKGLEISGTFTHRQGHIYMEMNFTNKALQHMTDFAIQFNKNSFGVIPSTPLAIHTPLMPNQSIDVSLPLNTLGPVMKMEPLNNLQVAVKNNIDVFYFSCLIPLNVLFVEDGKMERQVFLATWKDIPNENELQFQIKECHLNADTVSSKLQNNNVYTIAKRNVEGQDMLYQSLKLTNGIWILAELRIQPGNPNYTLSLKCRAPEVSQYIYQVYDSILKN

effect of a mutation on the interaction | Variant
increasing interaction | L13A

Variants of: B1
Settings: with ap1g1_human AP1G1, O43747
ap1g1_human AP1G1, O43747, sequence (O43747 whole entry): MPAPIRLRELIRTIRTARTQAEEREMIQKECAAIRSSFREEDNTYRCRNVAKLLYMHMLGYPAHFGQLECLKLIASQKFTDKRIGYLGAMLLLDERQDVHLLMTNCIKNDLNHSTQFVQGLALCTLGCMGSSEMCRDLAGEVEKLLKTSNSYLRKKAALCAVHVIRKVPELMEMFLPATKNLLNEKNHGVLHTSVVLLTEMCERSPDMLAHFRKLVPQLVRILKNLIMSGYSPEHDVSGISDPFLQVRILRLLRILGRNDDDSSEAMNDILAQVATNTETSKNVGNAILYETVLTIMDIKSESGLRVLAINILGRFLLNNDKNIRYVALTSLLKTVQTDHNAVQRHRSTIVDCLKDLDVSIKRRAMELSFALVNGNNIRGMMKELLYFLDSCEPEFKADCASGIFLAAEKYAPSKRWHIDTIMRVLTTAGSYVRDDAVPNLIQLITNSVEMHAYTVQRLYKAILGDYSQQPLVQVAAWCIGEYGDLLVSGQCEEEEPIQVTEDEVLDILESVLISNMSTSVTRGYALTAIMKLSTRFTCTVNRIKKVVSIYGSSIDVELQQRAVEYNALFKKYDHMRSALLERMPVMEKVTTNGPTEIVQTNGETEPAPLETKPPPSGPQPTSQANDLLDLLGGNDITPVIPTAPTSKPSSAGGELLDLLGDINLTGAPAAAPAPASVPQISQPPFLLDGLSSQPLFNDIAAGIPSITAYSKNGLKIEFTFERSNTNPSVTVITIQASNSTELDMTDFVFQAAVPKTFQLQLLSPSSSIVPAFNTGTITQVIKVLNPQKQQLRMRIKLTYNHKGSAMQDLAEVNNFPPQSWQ

effect of a mutation on the interaction | Variant
disrupting interaction | L12A

Variants of: B1
Settings: with ap1g1_mouse Ap1g1, P22892
ap1g1_mouse Ap1g1, P22892, sequence (P22892 whole entry): as the sequence (O43747 whole entry) above, with T596S, S650A, N664T, A674T, A702P, I769V counted along it

effect of a mutation on the interaction | Variant
disrupting interaction | L12A

Variants of: B1
Settings: with ap2b1_rat Ap2b1, P62944
ap2b1_rat Ap2b1, P62944, sequence (P62944 whole entry): as the sequence (Q9DBG3 whole entry) above, with T612A counted along it

effect of a mutation on the interaction | Variant
decreasing interaction | L12A

Variants of: B2
Settings: with lamp1_mouse Lamp1, P11438

effect of a mutation on the interaction | Variant
disrupting interaction | L12A

Source: IntAct's records for PubMed 19523115
